No end group written: not given here. FAM = fluorescein amidite
How the values were obtained:
[1] = biological target: T1, A3VP1^AgI/II (Streptococcus mutans UA159), P23504; test: SPR; 2 µM A3VP1^AgI/II incubated with 0.005 mM peptide, over immobilized iSRCR1
T1 chain: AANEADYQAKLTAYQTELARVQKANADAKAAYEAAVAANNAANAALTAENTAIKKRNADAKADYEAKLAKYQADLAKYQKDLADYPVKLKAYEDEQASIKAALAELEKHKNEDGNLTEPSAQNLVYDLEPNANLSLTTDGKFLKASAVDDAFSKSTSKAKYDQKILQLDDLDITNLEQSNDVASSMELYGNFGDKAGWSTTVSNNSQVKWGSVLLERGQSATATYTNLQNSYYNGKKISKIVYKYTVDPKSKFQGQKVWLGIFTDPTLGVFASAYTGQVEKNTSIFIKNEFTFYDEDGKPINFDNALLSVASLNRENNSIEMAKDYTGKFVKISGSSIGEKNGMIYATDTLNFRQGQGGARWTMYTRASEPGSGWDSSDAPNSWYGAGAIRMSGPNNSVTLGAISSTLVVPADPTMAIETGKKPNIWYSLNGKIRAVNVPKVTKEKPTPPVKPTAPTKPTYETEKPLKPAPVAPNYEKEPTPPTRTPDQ

[2] = biological target: A3VP1^SspB (S. gordonii DL1 SspB, residues 386-805) (Streptococcus gordonii DL1) (UniProt P16952)
[3] = biological target: C123^SspB (S. gordonii DL1 SspB, residues 913-1406) (Streptococcus gordonii DL1) (UniProt P16952)
[4] = biological target: A3VP1^SspB (S. gordonii DL1 SspB, residues 386-805) (Streptococcus gordonii DL1) (UniProt P16952); test: SPR; 2 µM A3VP1^SspB incubated with 0.005 mM peptide, over immobilized iSRCR1
[5] = biological target: T2, FL^SspB (S. gordonii DL1 SspB, residues 39-1433) (Streptococcus gordonii DL1), P16952
T2 chain: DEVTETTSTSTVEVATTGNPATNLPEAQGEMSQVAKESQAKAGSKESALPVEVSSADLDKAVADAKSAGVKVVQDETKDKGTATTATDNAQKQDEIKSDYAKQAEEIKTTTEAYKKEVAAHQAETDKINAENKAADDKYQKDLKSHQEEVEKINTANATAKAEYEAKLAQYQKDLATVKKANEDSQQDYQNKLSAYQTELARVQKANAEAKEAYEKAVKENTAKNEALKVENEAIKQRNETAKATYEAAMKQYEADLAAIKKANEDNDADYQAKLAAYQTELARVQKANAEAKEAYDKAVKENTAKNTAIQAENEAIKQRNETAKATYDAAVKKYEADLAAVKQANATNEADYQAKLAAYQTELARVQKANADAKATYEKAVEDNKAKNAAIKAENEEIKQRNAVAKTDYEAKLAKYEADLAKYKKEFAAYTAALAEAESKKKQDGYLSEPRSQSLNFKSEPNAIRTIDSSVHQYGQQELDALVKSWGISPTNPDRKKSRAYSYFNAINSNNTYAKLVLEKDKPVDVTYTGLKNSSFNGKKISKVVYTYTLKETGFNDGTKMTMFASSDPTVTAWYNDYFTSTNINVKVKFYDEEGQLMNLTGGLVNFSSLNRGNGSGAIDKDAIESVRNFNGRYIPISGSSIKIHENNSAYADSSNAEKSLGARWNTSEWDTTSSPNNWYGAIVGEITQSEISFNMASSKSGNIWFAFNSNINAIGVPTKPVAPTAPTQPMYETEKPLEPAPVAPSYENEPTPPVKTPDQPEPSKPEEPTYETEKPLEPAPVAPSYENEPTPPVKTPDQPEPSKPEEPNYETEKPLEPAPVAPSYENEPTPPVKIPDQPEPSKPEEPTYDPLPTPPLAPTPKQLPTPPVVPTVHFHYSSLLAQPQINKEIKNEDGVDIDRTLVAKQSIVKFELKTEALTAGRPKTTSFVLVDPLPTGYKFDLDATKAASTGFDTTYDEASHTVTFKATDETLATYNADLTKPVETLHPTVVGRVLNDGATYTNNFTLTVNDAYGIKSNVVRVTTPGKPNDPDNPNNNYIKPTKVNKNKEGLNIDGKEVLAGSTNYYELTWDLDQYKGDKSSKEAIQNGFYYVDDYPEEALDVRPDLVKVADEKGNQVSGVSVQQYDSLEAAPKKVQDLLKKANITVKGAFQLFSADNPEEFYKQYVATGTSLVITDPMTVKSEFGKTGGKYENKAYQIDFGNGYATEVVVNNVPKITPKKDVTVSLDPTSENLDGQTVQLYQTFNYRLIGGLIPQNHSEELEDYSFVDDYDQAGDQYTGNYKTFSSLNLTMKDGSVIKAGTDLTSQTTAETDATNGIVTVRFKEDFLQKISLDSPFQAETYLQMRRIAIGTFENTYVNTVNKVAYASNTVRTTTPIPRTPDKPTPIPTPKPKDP

[6] = biological target: T3, FL^AgI/II (S. mutans UA159 Antigen I/II, full length recombinant construct) (Streptococcus mutans UA159), P23504
T3 chain: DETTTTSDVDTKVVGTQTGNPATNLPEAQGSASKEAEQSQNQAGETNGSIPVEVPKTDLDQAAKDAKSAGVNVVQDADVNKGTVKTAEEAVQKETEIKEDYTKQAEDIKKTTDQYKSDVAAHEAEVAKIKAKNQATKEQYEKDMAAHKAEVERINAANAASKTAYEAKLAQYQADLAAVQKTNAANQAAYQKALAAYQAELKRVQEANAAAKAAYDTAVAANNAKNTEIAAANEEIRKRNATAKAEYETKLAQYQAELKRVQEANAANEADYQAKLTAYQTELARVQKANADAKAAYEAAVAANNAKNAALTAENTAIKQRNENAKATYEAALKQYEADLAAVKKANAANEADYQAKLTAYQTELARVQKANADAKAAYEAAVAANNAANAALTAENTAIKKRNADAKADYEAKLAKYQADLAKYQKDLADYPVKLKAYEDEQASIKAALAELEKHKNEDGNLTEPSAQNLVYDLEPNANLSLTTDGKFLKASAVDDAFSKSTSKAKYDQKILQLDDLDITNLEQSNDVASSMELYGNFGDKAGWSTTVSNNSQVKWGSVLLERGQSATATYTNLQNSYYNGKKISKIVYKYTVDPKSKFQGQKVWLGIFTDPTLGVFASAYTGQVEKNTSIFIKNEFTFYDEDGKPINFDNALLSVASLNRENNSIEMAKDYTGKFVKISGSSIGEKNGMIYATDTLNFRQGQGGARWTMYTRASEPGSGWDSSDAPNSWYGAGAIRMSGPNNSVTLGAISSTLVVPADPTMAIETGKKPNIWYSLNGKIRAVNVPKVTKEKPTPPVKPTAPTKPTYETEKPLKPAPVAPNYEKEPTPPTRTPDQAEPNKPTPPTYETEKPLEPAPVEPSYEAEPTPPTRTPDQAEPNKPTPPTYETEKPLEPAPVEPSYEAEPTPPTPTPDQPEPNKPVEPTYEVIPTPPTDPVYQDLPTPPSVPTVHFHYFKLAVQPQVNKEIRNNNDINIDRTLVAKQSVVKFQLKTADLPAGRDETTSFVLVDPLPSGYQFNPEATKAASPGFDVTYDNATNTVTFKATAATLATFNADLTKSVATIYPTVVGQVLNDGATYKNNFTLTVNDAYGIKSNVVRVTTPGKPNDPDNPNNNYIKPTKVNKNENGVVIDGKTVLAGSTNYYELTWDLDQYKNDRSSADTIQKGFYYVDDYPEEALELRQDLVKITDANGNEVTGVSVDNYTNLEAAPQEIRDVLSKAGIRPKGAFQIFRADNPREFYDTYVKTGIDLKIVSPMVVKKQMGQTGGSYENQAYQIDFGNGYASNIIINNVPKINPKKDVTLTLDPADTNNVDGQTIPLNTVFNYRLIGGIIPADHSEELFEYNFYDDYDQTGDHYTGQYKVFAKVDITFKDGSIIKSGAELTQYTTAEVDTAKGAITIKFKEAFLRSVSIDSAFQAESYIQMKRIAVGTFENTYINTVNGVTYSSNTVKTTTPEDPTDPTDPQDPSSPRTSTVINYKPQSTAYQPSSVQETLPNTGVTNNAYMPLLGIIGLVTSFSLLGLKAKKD

[7] = biological target: T4, C123^AgI/II (Streptococcus mutans UA159), P23504
T4 chain: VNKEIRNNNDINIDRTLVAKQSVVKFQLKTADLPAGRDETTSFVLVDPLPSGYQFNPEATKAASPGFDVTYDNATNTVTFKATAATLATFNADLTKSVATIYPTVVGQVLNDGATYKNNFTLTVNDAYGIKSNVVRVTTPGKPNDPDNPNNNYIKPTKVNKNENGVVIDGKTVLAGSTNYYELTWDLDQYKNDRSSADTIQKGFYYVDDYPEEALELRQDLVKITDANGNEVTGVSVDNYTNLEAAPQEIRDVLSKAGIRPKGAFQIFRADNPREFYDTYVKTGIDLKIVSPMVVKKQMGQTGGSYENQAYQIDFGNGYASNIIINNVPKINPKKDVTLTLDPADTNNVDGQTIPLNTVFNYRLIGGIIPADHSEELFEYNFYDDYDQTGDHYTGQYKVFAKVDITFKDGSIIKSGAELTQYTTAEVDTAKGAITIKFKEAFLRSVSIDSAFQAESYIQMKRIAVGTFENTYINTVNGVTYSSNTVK

[8] = biological target: T1, A3VP1^AgI/II (Streptococcus mutans …)
[9] = biological target: T2, FL^SspB (S. gordonii DL1 SspB, residues …); test: SPR; 2 µM FL^SspB incubated with 0.005 mM peptide, over immobilized iSRCR1
[10] = biological target: T3, FL^AgI/II (S. mutans UA159 Antigen …); test: SPR; 2 µM FL^AgI/II incubated with 0.005 mM peptide, over immobilized iSRCR1
[11] = biological target: GbpC (S. mutans), glucan binding protein C (Streptococcus mutans); test: SPR, peptide over immobilized GbpC

B1: SRCRP2 peptide with fluorescein amidite (FAM) at the carboxyl end (…-[FAM]) (peptide)
peptide: QGRVEVLYRGSWGTVCK-{FAM}
With B1 the % improvement of adherence to iSRCR1 [1] was 13%, the % change of adherence to iSRCR123 [2] was 3% and the % change of adherence to iSRCR1 [3] was 4%. For the same binder, the % change of adherence to iSRCR123 [3] was 5%, the % change of adherence to iSRCR1 [4] was 3% and the % improvement of adherence to iSRCR123 [5] was 91%. The % improvement of adherence to iSRCR123 [6] was 8%, the % change of adherence to iSRCR1 [7] was 2.3% and the % change of adherence to iSRCR123 [7] was 7%. The % improvement of adherence to iSRCR123 [8] was 16%, the % improvement of adherence to iSRCR1 [9] was 97% and the % improvement of adherence to iSRCR1 [10] was 8%.

B2: SRCR peptide … (peptide)
peptide: ETNDANVVARQL
modifications: not checked
B2 showed a Ka [11] of 2.57e+08 M⁻¹, a Kd [11] of 3.89 nM and a koff [11] of 0.0573 s⁻¹. For the same binder, the kon [11] was 1.47e+07 M⁻¹ s⁻¹.

Source: patent publication US20160331662A1, “Compositions that Inhibit and Prevent the Formation of Dental Caries and Methods of Using the Same” (priority 2014, published 2016)
